Data published in patent publication EP4722247A1 (Oricell Therapeutics Co., Ltd., dated 2026).
Like-named read-outs stand apart in the source and are kept apart here.

What was measured:
[1] = target: T1, Human CD39-His protein (CD9-H52H4, ACRO Biosystems) (human, UniProt P49961 38-478); assay: BLI (Fortebio), antibody on AHC probe, human CD39-His in solution
T1 construct: Purchased protein; also called human CD39-His antigen; human CD39 protein; not shown: His tag
T1 sequence (looked up): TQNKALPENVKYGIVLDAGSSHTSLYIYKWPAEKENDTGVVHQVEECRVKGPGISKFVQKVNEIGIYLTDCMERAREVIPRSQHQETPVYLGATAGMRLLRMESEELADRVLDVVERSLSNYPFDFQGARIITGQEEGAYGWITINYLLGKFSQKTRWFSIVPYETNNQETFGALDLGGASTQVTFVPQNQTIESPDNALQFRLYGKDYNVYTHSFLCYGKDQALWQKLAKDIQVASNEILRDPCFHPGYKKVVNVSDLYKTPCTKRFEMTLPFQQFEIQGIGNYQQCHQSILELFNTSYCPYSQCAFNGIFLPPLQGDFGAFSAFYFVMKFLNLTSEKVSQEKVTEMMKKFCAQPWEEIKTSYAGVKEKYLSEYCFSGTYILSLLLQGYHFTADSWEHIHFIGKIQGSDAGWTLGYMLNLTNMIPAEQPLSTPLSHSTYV

[2] = target: T1, Human CD39-His protein (CD9-H52H4, ACRO …); assay: as above; remark: listed apart in the source

- Kd [1]: 0.802 nM
- koff [1]: 0.000168 s⁻¹
- kon [1]: 210000 M⁻¹ s⁻¹
- Kd [2]: 1.28 nM
- koff [2]: 0.000408 s⁻¹
- kon [2]: 320000 M⁻¹ s⁻¹
B1: control antibody H5L5 (Patent CN112714768A) (antibody, V domains shown)
VH: QVQLVQSGAEVKKPGASVKVSCKASGYNLKDTFLHWVRQAPGQGLEWMGRIDPANGNIKYDPKFQGRVTITADTSANTAYMELISLRSEDTAVYYCANSPYYYGSGYRIFDVWGQGTTVTVSS
VL: QIVLTQSPATLSLSPGERATLSCSAFSSVNYMHWYQQKPGQAPRLLIYTTSNLASGIPTRFSGSGSGTSYTLTISSLEPEDFAVYYCQQRSTYPFTFGQGTKLEIKR
notes: Anti-CD39 control antibody; also called H5L5 control antibody
